Results: patent KR20220082776A (dated 2022)

Tests used:
[1] = target: T1, 인간 TIGIT (human TIGIT on cells) (human, UniProt Q495A1 22-244); test: flow cytometry on CD4 and CD8 T cells of anti-hCD3/28-activated human PBMC
T1 construct: whole, on cells; also called hTIGIT
T1 sequence (looked up): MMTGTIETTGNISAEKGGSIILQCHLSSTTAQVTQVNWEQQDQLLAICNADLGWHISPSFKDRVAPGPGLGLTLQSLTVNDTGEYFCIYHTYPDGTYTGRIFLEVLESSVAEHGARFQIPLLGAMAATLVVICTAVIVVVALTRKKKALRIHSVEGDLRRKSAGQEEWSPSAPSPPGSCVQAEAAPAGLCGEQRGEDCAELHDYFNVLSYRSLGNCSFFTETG

[2] = target: T2, 재조합 인간 TIGIT-His 단백질 (recombinant human TIGIT-His protein) (human) (UniProt Q495A1); test: SPR, chimeric antibodies; antigen not given
T2 sequence (looked up): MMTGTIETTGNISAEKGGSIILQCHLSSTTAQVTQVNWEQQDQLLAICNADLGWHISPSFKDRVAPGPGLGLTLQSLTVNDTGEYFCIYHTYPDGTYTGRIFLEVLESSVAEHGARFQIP

[3] = target: T3, 재조합 인간 TIGIT-His 단백질 (recombinant human TIGIT-His protein) (human, UniProt Q495A1 22-141); test: hybridoma culture medium; 도 1 is flow cytometry on anti-hCD3/28-activated human T cells, the sentence names recombinant human TIGIT-His
T3 construct: All are treated here as one molecule; also called TIGIT-His(Sino); 항원; not shown: His tag
T3 sequence (looked up): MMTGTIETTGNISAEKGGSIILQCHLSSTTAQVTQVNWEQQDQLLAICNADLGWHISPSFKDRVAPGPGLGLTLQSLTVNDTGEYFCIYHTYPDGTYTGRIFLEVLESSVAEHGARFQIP

[4] = target: T3, 재조합 인간 TIGIT-His 단백질 (recombinant human …); test: SPR; antigen not given
[5] = target: T3, 재조합 인간 TIGIT-His 단백질 (recombinant human …); test: ELISA, plate coated with recombinant human TIGIT-His, anti-hIgG-HRP detection
[6] = target: T1, 인간 TIGIT (human TIGIT on cells); test: flow cytometry on artificial effector T cells expressing TIGIT
[7] = target: T3, 재조합 인간 TIGIT-His 단백질 (recombinant human …); test: ELISA, plate coated with recombinant human TIGIT-His, as in Example 3-(1)
[8] = target: T3, 재조합 인간 TIGIT-His 단백질 (recombinant human …); test: method not named in the sentence (SPR of Example 7); antigen not given
[9] = target: T2, 재조합 인간 TIGIT-His 단백질 (recombinant human TIGIT-His protein) (human); test: SPR, humanized antibodies; antigen not given

B1: chimeric-후보항체 clone 58E (antibody, V domains shown)
VH: EVQLQQSGPELVKPGASVKMSCKASGYTFTSYVMHWVKQKPGQGLEWIGYINLNNDGTKYNEKFKGKATLSSDKSSSTAYMELSSLTSEDSAVYYCARWRVYYYAMDYWGQGTSVTVSS
VL: EIVLTQSPAITAASLGQKVTITCSASSSVNYMHWYQQKSGTSPRPWIYEISKLASGVPARFSGSGSGTSYSLTISSMEAEDAAIYYCQLWNYPLITFGAGTKLELK
notes: also called chimeric 58E; 후보항체 58E
[1]
  binding result: binds
[2]
  결합력, fold higher than the control Oncomed-313M32 antibody: 13 배

B2: clone 58E (hybridoma antibody) (antibody, V domains shown)
VH: EVQLQQSGPELVKPGASVKMSCKASGYTFTSYVMHWVKQKPGQGLEWIGYINLNNDGTKYNEKFKGKATLSSDKSSSTAYMELSSLTSEDSAVYYCARWRVYYYAMDYWGQGTSVTVSS
VL: EIVLTQSPAITAASLGQKVTITCSASSSVNYMHWYQQKSGTSPRPWIYEISKLASGVPARFSGSGSGTSYSLTISSMEAEDAAIYYCQLWNYPLITFGAGTKLELK
notes: Mouse hybridoma antibody (culture medium)
[3]
  binding result: binds

B3: T21.09 (antibody, V domains shown)
VH: EVQLQQSGPELVKPGASVKMSCKASGYTFTSYVMHWVKQKPGQGLEWIGYINLNNDGTKYNEKFKGKATLSSDKSSSTAYMELSSLTSEDSAVYYCARWRVYYYAMDYWGQGTSVTVSS
VL: EIVLTQSPATLSLSPGERATLSCNASSSVDYVHWYQQKPGQAPRPWIYEISKLASGIPARFSGSGSGTDYTLTISSLEPEDFAVYYCQLWNYPLITFGQGTKVEIK
notes: Gene engineered variant of 58E; also called clone T21.09
[4]
  binding result: binds

B4: T21.11 (antibody, V domains shown)
VH: QVQLVQSGAEVKKPGASVKVSCKASGYTFTSYVMHWVRQAPGQRLEWIGYINLNNDGTKYNEKFKGRATLTSDKSASTAYMELSSLRSEDTAVYYCARWRVYYYAMDYWGQGTLVTVSS
VL: EIVLTQSPAITAASLGQKVTITCNASSSVDYVHWYQQKSGTSPRPWIYEISKLASGVPARFSGSGSGTSYSLTISSMEAEDAAIYYCQLWNYPLITFGAGTKLELK
notes: Gene engineered variant of 58E: humanized 58E heavy chain, light chain T21L01; also called clone T21.11
[4]
  binding result: binds

B5: T21.01 (antibody, V domains shown)
VH: EVQLQQSGPELVKPGASVKMSCKASGYTFTSYVMHWVKQKPGQGLEWIGYINLNNDGTKYNEKFKGKATLSSDKSSSTAYMELSSLTSEDSAVYYCARWRVYYYAMDYWGQGTSVTVSS
VL: EIVLTQSPAITAASLGQKVTITCNASSSVDYVHWYQQKSGTSPRPWIYEISKLASGVPARFSGSGSGTSYSLTISSMEAEDAAIYYCQLWNYPLITFGAGTKLELK
notes: Gene engineered variant of 58E; produced in Expi293F; also called clone T21.01
[4]
  binding result: binds

B6: chimeric-후보항체 clone 19D (antibody, V domains shown)
VH: EVQLQQSGPELVKPGASVKMSCKASGYTFSNYVMHWVKQKPGQGLEWIGYINPYNDGTKYNEKFKGKATLTSDRSSSTAYMELSSLTSEDSAVYYCARWRVNYYFDYWGQGTTLTVSS
VL: QIVLSQSPAILSASPGEKVTMTCRASSSVNYMHWYQQKPGSSPKAWISVTSNLASGVPARFSGSGSGTSYSLTISRVEAEDAATYYCQQWSSNPPWTFGGGTKLEIK
notes: Produced in Expi293; also called chimeric 19D
[5]
  binding result: binds

B7: chimeric-후보항체 clone 63F (antibody, V domains shown)
VH: EVQLEEFGGGLVQPGGSMKLSCVASGSTFSNYWMNWVRQSPEKGLEWVAEIRLKFNNYATHYVESVIGRFTISRDDSKSSVYLQMNNLRAEDTGIYYCTMVRRNWYFDVWGAGTTVTVSS
VL: QIVLTQSPAIMSAFPGEKVTLTCSASSSVSSSYLYWYQQKPRSSPKLWIYSTSNLASGVPARFSGSGSGTSYSLTISSMEAEDAASYFCHQWSSYPYTFGGGTKLEIK
[2]
  결합력, fold higher than the control Oncomed-313M32 antibody: 6 배

B8: chimeric-후보항체 clone 75G (antibody, V domains shown)
VH: EVNLEESGGGLVQPGGSMKLSCVASGVTFSNYWMNWVRQSPEKGLEWVAEIRLKFNDYATHYVESVKGRFTISRDDSESSVYLQMNNLRAEDTGIYYCTMVRRNWYFDVWGAGTTVTVSS
VL: QIVLTQSPAIMSASPGEKVTLTCSASSSVSSGYLYWYQKKPGSSPKLWIYSTSDLASGVPARFSGSGSGTFYSLTISNMEAEDAASYFCHQWSSYPYTFGGGTKLEIK
notes: also called chimeric 75G
[1]
  binding result: binds
[2]
  결합력, fold higher than the control Oncomed-313M32 antibody: 30 배

B9: clone 75G (hybridoma antibody) (antibody, V domains shown)
VH: EVNLEESGGGLVQPGGSMKLSCVASGVTFSNYWMNWVRQSPEKGLEWVAEIRLKFNDYATHYVESVKGRFTISRDDSESSVYLQMNNLRAEDTGIYYCTMVRRNWYFDVWGAGTTVTVSS
VL: QIVLTQSPAIMSASPGEKVTLTCSASSSVSSGYLYWYQKKPGSSPKLWIYSTSDLASGVPARFSGSGSGTFYSLTISNMEAEDAASYFCHQWSSYPYTFGGGTKLEIK
notes: as for B2
[3]
  binding result: binds

B10: 인간화 후보항체 clone 19D (antibody, V domains shown)
VH: QVQLVQSGAEVKKPGASVKVSCKASGYTFSNYVMHWVRQAPGQRLEWIGYINPYNDGTKYNEKFKGRATLTSDRSASTAYMELSSLRSEDTAVYYCARWRVNYYFDYWGQGTLVTVSS
VL: DIQLTQSPSSLSASVGDRVTITCRASSSVNYMHWYQQKPGKAPKAWISVTSNLASGVPSRFSGSGSGTDYTLTISSLQPEDFATYYCQQWSSNPPWTFGQGTKVEIK
notes: Humanized; also called 인간화 후보항체 19D; humanized 19D
[6]
  binding result: binds
[7]
  binding result: binds

B11: T21.13 (antibody, V domains shown)
VH: QVQLVQSGAEVKKPGASVKVSCKASGYTFTSYVMHWVRQAPGQRLEWIGYINLNNDGTKYNEKFKGRATLTSDKSASTAYMELSSLRSEDTAVYYCARWRVYYYAMDYWGQGTLVTVSS
VL: EIVLTQSPATLSLSPGERATLSCNASSSVDYVHWYQQKPGQAPRPWIYEISKLASGIPARFSGSGSGTDYTLTISSLEPEDFAVYYCQLWNYPLITFGQGTKVEIK
notes: Gene engineered variant of 58E; also called clone T21.13
[4]
  binding result: binds

B12: T21.33 (antibody, V domains shown)
VH: QVQLVQSGAEVKKPGASVKVSCKASGYTFTSYVMHWVRQAPGQRLEWIGYINLNNDGTKYNEKFKGRATLTSDKSASTAYMELSSLRSEDTAVYYCARWRVYYYAMDYWGQGTLVTVSS
VL: EIVLTQSPATLSLSPGERATLSCNASSSVDYVHWYQQKPGQAPRPWIYEISKLASGIPARFSGSGSGTSYTLTISSLEPEDFAVYYCQLWNYPLITFGQGTKVEIK
notes: also called clone T21.33
[8]
  binding result: binds

B13: 인간화 후보항체 clone 62F (antibody, V domains shown)
VH: QVQLVQSGAEVKKPGASVKVSCKASGFTFTEYTMHWVRQAPGQGLEWIGGFNPNSGGSSYNQKFKGRATLTVDKSISTAYMELSRLRSDDTAVYYCARSSYYRFDLDYWGQGTTVTVSS
VL: DIQMTQSPSSLSASVGDRVTITCKASQDVKTAVAWYQQKPGKAPKLLIYSASFRYTGVPSRFSGSGSGADFTLTISSLQPEDFATYYCQQHYTTPWTFGQGTKVEIK
notes: Humanized; also called 인간화 후보항체 62F; hu62F
[6]
  binding result: binds
[9]
  결합력, fold higher than humanized clone 19D: 33 배

B14: chimeric-후보항체 clone 62F (antibody, V domains shown)
VH: EVQLQQSGPELVKPGASVKISCKTSGFTFTEYTMHWVKQSHGKSLEWIGGFNPNSGGSSYNQKFKGKATLTVDKSSSTAFMELRSLTSEDSAAYYCARSSYYRFDLDYWGQGTTLTVSS
VL: DIVMTQSHKFMSTSVGDRVSITCKASQDVKTAVAWYQQKPGQSPQLLIYSASFRYTGVPDRFTGSGSGADFTFTISSVQAEDLAAYYCQQHYTTPWTFGGGTKLEIK
notes: also called chimeric 62F
[1]
  binding result: binds
[2]
  결합력, fold higher than the control Oncomed-313M32 antibody: 30 배

B15: clone 62F (hybridoma antibody) (antibody, V domains shown)
VH: EVQLQQSGPELVKPGASVKISCKTSGFTFTEYTMHWVKQSHGKSLEWIGGFNPNSGGSSYNQKFKGKATLTVDKSSSTAFMELRSLTSEDSAAYYCARSSYYRFDLDYWGQGTTLTVSS
VL: DIVMTQSHKFMSTSVGDRVSITCKASQDVKTAVAWYQQKPGQSPQLLIYSASFRYTGVPDRFTGSGSGADFTFTISSVQAEDLAAYYCQQHYTTPWTFGGGTKLEIK
notes: Mouse hybridoma antibody
[3]
  binding result: binds

B16: 인간화 후보항체 clone 63F (antibody, V domains shown)
VH: EVQLVESGGGLVQPGGSLRLSCAASGSTFSNYWMNWVRQAPGKGLEWVAEIRLKFNNYATHYVESVIGRFTISRDDSKNSVYLQMNSLKTEDTAVYYCTMVRRNWYFDVWGRGTLVTVSS
VL: EIVLTQSPATLSLSPGERATLSCSASSSVSSSYLYWYQQKPGLAPRLWIYSTSNLASGIPDRFSGSGSGTDYTLTISRLEPEDFAVYYCHQWSSYPYTFGQGTKLEIK
notes: Humanized; also called 인간화 후보항체 63F; humanized 63F
[6]
  binding result: binds
[9]
  결합력, fold higher than humanized clone 19D: 13 배

B17: 인간화 후보항체 clone 75G (antibody, V domains shown)
VH: EVQLVESGGGLVQPGGSLRLSCAASGVTFSNYWMNWVRQAPGKGLEWVAEIRLKFNDYATHYVESVKGRFTISRDDSKNSVYLQMNSLKTEDTAVYYCTMVRRNWYFDVWGRGTLVTVSS
VL: EIVLTQSPATLSLSPGERATLSCSASSSVSSGYLYWYQQKPGLAPRLWIYSTSDLASGIPDRFSGSGSGTDYTLTISRLEPEDFAVYYCHQWSSYPYTFGQGTKLEIK
notes: Humanized; also called 인간화 후보항체 75G; humanized 75G
[6]
  binding result: binds
[9]
  결합력, fold higher than humanized clone 19D: 36 배
